Values belong to the binder of their own block, whether it stands above or below them.
B2: human kallikrein 14 (hK14) (enzyme, UniProt Q9P0G3 25-251, looked up)
chain: IIGGHTCTRSSQPWQAALLAGPRRRFLCGGALLSGQWVITAAHCGRPILQVALGKHNLRRWEATQQVLRVVRQVTHPNYNSRTHDNDLMLLQLQQPARIGRAVRPIEVTQACASPGTSCRVSGWGTISSPIARYPASLQCVNINISPDEVCQKAYPRTITPGMVCAGVPQGGKDSCQGDSGGPLVCRGQLQGLVSWGMERCALPGYPGVYTNLCKYRSWIEETMRDK
notes: range counted on GenBank AAK48524 (printed), which may differ from the UniProt numbering; also called recombinant hK14

What was measured:
[1] = biological target: B2; test: progress curve
[2] = biological target: B2; test: progress curve; remark: listed apart in the source
human kallikrein 2 (hK2) = human kallikrein 2 (hK2) (human, UniProt P20151 25-261); test: cell-based or functional assay
[3] = biological target: prostate specific antigen (PSA, hK3) (human, UniProt P07288 25-261); test: cell-based or functional assay
[4] = biological target: human chymotrypsin (Chtr) (human, UniProt P17538 19-263); test: cell-based or functional assay
[5] = biological target: human plasma kallikrein (PK) (human, UniProt P03952 20-638); test: cell-based or functional assay
[6] = biological target: T1, human neutrophil elastase (HNE) (human, UniProt P08246 30-247, limits assumed); test: cell-based or functional assay
T1 sequence (looked up): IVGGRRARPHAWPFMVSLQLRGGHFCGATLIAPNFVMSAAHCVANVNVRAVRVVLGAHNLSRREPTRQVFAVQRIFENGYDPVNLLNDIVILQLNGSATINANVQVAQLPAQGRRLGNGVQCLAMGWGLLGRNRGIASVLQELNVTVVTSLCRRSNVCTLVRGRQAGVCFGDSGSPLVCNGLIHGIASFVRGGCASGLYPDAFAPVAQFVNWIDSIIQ

thrombin = test: cell-based or functional assay
[7] = biological target: B2; test: cell-based or functional assay
human kallikrein 4 (hK4) = human kallikrein 4 (hK4) (human, UniProt Q9Y5K2 31-254, limits assumed); test: cell-based or functional assay
human kallikrein 5 (hK5) = biological target: T2, human kallikrein 5 (hK5) (human, UniProt Q9Y337 67-293, limits assumed); test: cell-based or functional assay
T2 sequence (looked up): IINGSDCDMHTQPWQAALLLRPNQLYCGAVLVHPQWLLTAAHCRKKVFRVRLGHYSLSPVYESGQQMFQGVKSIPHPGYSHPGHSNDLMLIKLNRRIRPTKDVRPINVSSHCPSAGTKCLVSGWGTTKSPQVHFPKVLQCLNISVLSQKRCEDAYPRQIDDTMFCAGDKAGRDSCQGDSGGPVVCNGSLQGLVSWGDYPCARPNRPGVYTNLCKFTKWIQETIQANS

human kallikrein 6 (hK6) = human kallikrein 6 (hK6) (human, UniProt Q92876 22-244); test: cell-based or functional assay
human kallikrein 8 (hK8) = biological target: T3, human kallikrein 8 (hK8) (human, UniProt O60259 33-260); test: cell-based or functional assay
T3 sequence (looked up): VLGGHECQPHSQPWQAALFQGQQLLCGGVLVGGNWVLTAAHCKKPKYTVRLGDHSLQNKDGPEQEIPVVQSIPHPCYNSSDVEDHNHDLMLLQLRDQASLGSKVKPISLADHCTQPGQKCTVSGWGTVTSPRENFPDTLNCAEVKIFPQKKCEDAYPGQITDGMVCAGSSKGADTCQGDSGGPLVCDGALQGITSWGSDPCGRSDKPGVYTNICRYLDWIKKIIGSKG

[8] = biological target: T4, human kallikrein 13 (hK13) (human, UniProt Q9UKR3 26-277, limits assumed); test: cell-based or functional assay
T4 sequence (looked up): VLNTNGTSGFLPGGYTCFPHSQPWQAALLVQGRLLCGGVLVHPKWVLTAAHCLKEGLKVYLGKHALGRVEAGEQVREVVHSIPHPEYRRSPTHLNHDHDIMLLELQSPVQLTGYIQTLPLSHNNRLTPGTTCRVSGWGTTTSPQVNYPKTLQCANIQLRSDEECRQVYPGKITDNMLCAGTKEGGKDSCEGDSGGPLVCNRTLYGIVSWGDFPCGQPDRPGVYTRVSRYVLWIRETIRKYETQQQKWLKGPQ

[9] = biological target: B2; test: progress curve, pseudo-first order, 37 C
Method: (§1) The association rate constants for interactions of hK14, with different inhibitors were determined under pseudo-first order conditions using the progress curve method (Morrison and Walsh, 1988). Under these conditions, a fixed amount of enzyme (2 nM) was mixed with different concentrations of inhibitor (0-80 nM) and an excess of substrate (20 μM). Reactions were performed in reaction buffer (50 mM Tris pH 7.5, 150 mM NaCl, 0.05% Triton X-100, 0.01% BSA) at 37° C. for 45 min and the rate of product formation was measured using a FLₓ800 fluorescence 96-well microplate reader (Biotek, USA) Inhibition is considered to be irreversible over the course of reaction and the progression of enzyme activity is expressed as product formation (P), beginning at a rate (vz) and is inhibited over time (t) at a first-order rate (kobs), where the rate constant is only dependent on the inhibitor concentration.
(§2) Kinetic analysis of the inhibition of human hK14 by recombinant serpins were performed under pseudo-first-order conditions using an excess of inhibitor at various molar ratios of hK14. The time-dependent inactivation of the enzyme through reaction with serpin was monitored continuously, following the decrease in the rate of substrate turnover. Progress curves for reactions with different serpin concentrations were fitted to equation 1 to calculate values describing the rate constant (kobs). The association rate constants (kₐ) were determined from the slope of kobs values versus the concentration of the hK14 inhibitors.

[10] = biological target: B2; test: residual hK14 activity against [I0]/[E0]
Procedure, shortened: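 hK14 preincubated 4 hours at 37° C with varying inhibitor concentrations in 50 mM Tris pH 7.5, 150 mM NaCl, 0.05% Triton X-100, 0.01% BSA; residual activity read with Boc-Val-Pro-Arg-AMC (ex 340/em 485 nm). SI taken as abscissa intercept of vi/v₀ versus [I₀]/[E₀] linear regression.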

[11] = biological target: B2; test: residual hK14 activity after 4 h at 37 C against [I0]/[E0]
Method: SI values of rAAT, rACT, and their variants were determined with hK14 incubating the protease with varying concentrations of inhibitor. After an incubation of 4 hours at 37° C. in reaction buffer (50 mM Tris, pH 7.5, 150 mM NaCl, 0.05% Triton X-100, 0.01% BSA), the residual activity was detected by the addition of fluorescent substrate (Boc-Val-Pro-Arg-AMC). Fluorescence was measured with excitation at 340 nm (±15) and emission at 485 nm (±10) in black 96 well plates using a microplate fluorescence reader FLₓ800 (Bio-Tek Instruments, Inc.). The SI value corresponds to the abscissa intercept of the linear regression analysis of fractional velocity (velocity of inhibited enzyme reaction (vi)/velocity of uninhibited enzyme reaction (v₀)) vs. the molar ratio of the inhibitor to enzyme ([I₀]/[E₀]).

[12] = biological target: T5, AATWT (recombinant wild type alpha-1-antitrypsin) (human, UniProt P01009 25-418); test: progress curve
T5 construct: mature; also called rAATwt; rAAT
Method: as §1

AATG9 [13] = biological target: T6, AATG9 (human, UniProt P01009 25-418); test: progress curve
T6 construct: mature; also called rAATG9
Method: as §1

AATG1 = biological target: T7, AATG1 (human, UniProt P01009 25-418); test: progress curve; * [I0]/[E0] < 5 * SI
T7 construct: mature
Method: as §1

AATG1g = biological target: T8, AATG1g (human, UniProt P01009 25-418); test: progress curve; * [I0]/[E0] < 5 * SI
T8 construct: mature
Method: as §1

AATC11 = biological target: T9, AATC11 (human, UniProt P01009 25-418); test: progress curve; * [I0]/[E0] < 5 * SI
T9 construct: mature
Method: as §1

AATE5 = biological target: T10, AATE5 (human, UniProt P01009 25-418); test: progress curve; * [I0]/[E0] < 5 * SI
T10 construct: mature
Method: as §1

AATE8 = biological target: T11, AATE8 (human, UniProt P01009 25-418); test: progress curve; * [I0]/[E0] < 5 * SI
T11 construct: mature; also called rAATE8
Method: as §1

AATF3 = biological target: T12, AATF3 (human, UniProt P01009 25-418); test: progress curve; * [I0]/[E0] < 5 * SI
T12 construct: mature
Method: as §1

[14] = biological target: T5, AATWT (recombinant wild type …); test: progress curve, pseudo-first order, 37 C
Method: as §1, §2

AATG9 [15] = biological target: T6, AATG9; test: progress curve, pseudo-first order, 37 C
Method: as §1, §2

T5 sequence (P01009 other isoform, or with tags, fused parts or gaps): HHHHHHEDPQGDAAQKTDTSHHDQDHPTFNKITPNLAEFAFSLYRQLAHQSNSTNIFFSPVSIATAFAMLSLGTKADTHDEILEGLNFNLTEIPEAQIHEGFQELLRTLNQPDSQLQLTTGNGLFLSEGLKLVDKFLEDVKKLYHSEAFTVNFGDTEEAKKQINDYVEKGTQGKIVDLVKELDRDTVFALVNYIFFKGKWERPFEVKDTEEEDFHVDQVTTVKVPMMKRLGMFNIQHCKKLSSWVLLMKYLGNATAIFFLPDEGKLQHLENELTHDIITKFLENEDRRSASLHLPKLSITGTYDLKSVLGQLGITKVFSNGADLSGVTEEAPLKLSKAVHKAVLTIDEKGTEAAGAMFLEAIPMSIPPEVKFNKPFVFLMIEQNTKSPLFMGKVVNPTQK
T6 sequence (P01009 other isoform, or with tags, fused parts or gaps): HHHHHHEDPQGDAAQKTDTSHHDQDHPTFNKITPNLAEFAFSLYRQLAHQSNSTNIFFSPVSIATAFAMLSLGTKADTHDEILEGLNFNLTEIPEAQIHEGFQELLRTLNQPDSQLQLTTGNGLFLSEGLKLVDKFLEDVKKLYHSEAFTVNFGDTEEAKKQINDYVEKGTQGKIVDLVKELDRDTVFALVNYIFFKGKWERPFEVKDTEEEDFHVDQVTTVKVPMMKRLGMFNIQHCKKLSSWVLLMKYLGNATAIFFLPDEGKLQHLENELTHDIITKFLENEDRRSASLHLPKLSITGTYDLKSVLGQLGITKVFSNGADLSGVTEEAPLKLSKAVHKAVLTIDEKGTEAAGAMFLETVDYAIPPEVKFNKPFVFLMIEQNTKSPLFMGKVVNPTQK
T8 sequence (P01009 other isoform, or with tags, fused parts or gaps): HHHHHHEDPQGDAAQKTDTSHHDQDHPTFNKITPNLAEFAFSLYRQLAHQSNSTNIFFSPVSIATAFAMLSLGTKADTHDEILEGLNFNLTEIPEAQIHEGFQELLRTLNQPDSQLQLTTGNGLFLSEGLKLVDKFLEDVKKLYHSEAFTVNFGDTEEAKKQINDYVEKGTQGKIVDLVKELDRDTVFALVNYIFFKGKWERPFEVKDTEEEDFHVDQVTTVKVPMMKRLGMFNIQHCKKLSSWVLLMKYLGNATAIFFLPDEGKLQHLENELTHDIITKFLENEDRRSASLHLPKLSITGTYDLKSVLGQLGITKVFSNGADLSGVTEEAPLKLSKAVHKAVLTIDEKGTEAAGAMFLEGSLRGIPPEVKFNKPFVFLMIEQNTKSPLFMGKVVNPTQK
Chain of human kallikrein 4 (hK4) (Q9Y5K2 31-254 limits assumed): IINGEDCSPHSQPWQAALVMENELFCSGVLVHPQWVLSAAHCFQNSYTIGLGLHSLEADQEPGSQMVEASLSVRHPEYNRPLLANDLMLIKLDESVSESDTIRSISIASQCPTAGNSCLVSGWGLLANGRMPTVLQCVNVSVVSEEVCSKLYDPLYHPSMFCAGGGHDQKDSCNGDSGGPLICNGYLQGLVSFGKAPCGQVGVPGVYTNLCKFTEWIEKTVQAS
T11 sequence (P01009 other isoform, or with tags, fused parts or gaps): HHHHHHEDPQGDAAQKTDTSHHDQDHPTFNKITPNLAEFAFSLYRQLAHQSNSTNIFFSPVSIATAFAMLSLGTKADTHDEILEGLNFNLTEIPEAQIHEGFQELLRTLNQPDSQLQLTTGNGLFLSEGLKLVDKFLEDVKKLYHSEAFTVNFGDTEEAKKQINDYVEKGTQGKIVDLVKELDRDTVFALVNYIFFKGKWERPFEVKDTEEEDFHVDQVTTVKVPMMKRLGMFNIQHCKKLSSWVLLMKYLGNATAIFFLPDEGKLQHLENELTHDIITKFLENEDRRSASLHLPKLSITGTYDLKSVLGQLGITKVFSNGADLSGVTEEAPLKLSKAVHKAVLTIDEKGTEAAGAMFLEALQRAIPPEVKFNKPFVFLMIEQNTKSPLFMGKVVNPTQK
T9 sequence (P01009 other isoform, or with tags, fused parts or gaps): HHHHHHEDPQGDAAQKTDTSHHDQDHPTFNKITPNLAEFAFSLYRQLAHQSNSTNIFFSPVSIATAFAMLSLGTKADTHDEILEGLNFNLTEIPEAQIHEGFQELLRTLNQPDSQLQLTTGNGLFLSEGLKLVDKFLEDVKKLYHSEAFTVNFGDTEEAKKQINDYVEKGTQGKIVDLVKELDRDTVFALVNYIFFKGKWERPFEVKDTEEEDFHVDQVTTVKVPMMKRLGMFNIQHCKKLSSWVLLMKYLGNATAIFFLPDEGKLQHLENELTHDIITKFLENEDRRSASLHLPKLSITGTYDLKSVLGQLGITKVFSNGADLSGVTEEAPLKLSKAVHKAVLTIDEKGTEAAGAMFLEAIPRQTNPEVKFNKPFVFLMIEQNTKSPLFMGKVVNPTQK
T10 sequence (P01009 other isoform, or with tags, fused parts or gaps): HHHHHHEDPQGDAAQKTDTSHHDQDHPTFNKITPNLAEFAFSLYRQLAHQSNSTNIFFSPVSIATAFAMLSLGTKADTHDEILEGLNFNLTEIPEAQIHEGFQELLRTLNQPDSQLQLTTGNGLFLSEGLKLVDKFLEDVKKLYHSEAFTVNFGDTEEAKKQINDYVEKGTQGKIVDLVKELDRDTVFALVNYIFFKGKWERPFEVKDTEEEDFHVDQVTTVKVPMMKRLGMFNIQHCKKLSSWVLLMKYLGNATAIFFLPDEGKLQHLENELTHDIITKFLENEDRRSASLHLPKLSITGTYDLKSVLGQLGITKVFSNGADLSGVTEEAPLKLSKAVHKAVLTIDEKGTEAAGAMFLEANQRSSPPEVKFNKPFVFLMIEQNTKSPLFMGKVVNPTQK
T12 sequence (P01009 other isoform, or with tags, fused parts or gaps): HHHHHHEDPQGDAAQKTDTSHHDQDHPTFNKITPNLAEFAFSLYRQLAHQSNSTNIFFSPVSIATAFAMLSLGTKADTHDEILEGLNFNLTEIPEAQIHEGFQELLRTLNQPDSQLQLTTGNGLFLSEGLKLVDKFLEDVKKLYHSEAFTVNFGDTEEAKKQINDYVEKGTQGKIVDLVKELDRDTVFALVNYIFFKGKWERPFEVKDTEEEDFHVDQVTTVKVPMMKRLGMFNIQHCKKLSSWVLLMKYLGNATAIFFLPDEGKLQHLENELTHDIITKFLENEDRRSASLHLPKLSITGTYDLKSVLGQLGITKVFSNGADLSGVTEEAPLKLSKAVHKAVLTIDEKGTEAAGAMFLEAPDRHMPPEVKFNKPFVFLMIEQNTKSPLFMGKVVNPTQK
Chain of human chymotrypsin (Chtr) (P17538 19-263): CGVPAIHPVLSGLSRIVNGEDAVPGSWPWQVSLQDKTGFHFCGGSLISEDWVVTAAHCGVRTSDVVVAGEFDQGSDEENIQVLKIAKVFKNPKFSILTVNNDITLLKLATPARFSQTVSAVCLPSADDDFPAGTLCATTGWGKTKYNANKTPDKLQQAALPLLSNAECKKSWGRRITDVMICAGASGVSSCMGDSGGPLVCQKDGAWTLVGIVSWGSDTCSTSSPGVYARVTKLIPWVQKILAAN
Chain of human plasma kallikrein (PK) (P03952 20-638 limits assumed): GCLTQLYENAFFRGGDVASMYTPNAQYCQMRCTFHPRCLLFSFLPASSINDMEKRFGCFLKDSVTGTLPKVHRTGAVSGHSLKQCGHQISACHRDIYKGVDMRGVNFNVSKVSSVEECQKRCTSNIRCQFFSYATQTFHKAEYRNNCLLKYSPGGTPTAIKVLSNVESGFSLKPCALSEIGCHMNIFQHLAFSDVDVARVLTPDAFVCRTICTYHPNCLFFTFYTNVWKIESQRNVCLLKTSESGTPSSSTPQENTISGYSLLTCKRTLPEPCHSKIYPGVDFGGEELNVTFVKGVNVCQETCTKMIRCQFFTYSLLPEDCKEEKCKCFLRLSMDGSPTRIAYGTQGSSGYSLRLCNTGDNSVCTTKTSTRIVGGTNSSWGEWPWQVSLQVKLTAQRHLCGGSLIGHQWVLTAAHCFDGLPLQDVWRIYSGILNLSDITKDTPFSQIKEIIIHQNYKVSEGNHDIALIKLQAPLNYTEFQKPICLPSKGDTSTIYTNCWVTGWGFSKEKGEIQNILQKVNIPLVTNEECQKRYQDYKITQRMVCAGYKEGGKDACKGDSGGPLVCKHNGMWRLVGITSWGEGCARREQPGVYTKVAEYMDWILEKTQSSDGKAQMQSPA
T7 sequence (P01009 other isoform, or with tags, fused parts or gaps): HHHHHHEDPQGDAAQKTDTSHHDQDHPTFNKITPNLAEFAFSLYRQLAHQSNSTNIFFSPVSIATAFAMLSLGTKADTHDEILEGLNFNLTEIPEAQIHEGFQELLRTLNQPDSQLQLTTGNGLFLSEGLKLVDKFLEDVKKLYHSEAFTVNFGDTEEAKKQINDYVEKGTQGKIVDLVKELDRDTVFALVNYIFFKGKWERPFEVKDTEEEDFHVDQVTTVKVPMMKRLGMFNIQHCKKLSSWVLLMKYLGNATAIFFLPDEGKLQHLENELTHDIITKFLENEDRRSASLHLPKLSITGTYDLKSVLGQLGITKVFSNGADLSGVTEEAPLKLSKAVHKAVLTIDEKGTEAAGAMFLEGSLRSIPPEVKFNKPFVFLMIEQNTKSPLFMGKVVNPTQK

- kon [1]: 75000 M⁻¹ s⁻¹
- kon [2]: 74000 M⁻¹ s⁻¹
- Percentage inhibition (human kallikrein 2 (hK2)): 0%
- Percentage inhibition [3]: 0%
- Percentage inhibition [4]: 100%
- Percentage inhibition [5]: 0%
- Percentage inhibition [6]: 0%
- Percentage inhibition (thrombin): 0%
- Percentage inhibition [7]: 100%
- Percentage inhibition (human kallikrein 4 (hK4)): 0%
- Percentage inhibition (human kallikrein 5 (hK5)): 0%
- Percentage inhibition (human kallikrein 6 (hK6)): 0%
- Percentage inhibition (human kallikrein 8 (hK8)): 0%
- Percentage inhibition [8]: 0%
- kon [9]: 74000 M⁻¹ s⁻¹
- SI (stoichiometry of inhibition) [10]: 1.5
- SI (stoichiometry of inhibition) [11]: 1.5
B1: ACTG9 (other)
chain: MRGSHHHHHHSRHPNSPLDEENLTQENQDRGTHVDLGLASANVDFAFSLYKQLVLKAPDKNVIFSPLSISTALAFLSLGAHNTTLTEILKGLKFNLTETSEAEIHQSFQHLLRTLNQSSDELQLSMGNAMFVKEQLSLLDRFTEDAKRLYGSEAFATDFQDSAAAKKLINDYVKNGTRGKITDLIKDLDSQTMMVLVNYIFFKAKWEMPFDPQDTHQSRFYLSKKKWVMVPMMSLHHLTIPYFRDEELSCTVVELKYTGNASALFILPDQDKMEEVEAMLLPETLKRWRDSLEFREIGELYLPKFSISRDYNLNDILLQLGIEEAFTSKADLSGITGARNLAVSQVVHKAVLDVFEEGTEASAATAVKTVDYAALVETRTIVRFNRPFLMIIVPTDTQNIFFMSKVTNPKQA
notes: also called rACTG9

Binder: B2
- kon [12]: 263000 M⁻¹ s⁻¹
- kon (AATG9 [13]): 217000 M⁻¹ s⁻¹
- kon (AATG1): 168000 M⁻¹ s⁻¹
- kon (AATG1g): 257000 M⁻¹ s⁻¹
- kon (AATC11): 63000 M⁻¹ s⁻¹
- kon (AATE5): 28000 M⁻¹ s⁻¹
- kon (AATE8): 242000 M⁻¹ s⁻¹
- kon (AATF3): 13000 M⁻¹ s⁻¹
- kon [14]: 263000 M⁻¹ s⁻¹
- kon (AATG9 [15]): 217000 M⁻¹ s⁻¹
